Reference: patent US20160024210A1 (AstraZeneca / MedImmune, published 2016)

T1: H7CR-GFP fusion protein on transfected CHO cells (Homo sapiens (Human), UniProt Q96BF3 23-282)
T1 construct: not shown: GFP part
T1 sequence: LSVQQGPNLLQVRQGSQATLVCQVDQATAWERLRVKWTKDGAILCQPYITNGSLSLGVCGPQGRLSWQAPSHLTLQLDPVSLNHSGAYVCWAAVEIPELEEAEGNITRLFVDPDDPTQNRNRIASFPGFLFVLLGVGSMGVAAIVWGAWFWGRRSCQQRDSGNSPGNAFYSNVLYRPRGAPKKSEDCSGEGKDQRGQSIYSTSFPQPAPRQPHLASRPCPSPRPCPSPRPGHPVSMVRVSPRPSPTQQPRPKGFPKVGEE

T2: human H7CR (B7-H7 counter-receptor) (human, UniProt Q96BF3 23-282)
T2 construct: Used for H7CR on CHO.hH7CR transfectants, human T cells and tonsil tissue; also called B7-H7CR; CD28H
T2 sequence: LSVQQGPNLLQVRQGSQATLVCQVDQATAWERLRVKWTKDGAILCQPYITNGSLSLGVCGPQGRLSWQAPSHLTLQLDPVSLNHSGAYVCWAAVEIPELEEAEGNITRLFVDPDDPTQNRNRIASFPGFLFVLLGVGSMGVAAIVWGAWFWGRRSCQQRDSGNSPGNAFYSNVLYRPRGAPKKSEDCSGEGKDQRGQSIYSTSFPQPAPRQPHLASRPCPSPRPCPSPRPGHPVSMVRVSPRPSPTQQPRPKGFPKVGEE


Legend:
[1] = molecular target: T1, H7CR-GFP fusion protein on transfected …; experiment: flow cytometry, 5 µg/ml variant on H7CR-GFP transfected CHO cells, anti-hIg PE secondary antibody [row HC2-3, column LC1-1]
Method: (§1) 5 μg/ml antibodies from thirty-six variants were incubated with H7CR-GFP fusion protein transfected CHO cells for 30 min at room temperature. Cells were then washed twice with 2 ml flow cytometry buffer, and resuspended in 100 μl flow cytometry buffer. 1 μl anti-hIg PE secondary antibody (Biolegend) was added and incubated with the cells for 15 mins Samples were then washed and resuspended in 100 μl flow cytometry buffer. Flow Cytometry data was acquired using BD Canto (BD Biosciences) in plate format and analyzed by FlowJo software.

[2] = molecular target: T2, human H7CR (B7-H7 counter-receptor); experiment: binding to human H7CR as endogenously expressed on the surface of a cell
[3] = molecular target: T1, H7CR-GFP fusion protein on transfected …; experiment: flow cytometry, 5 µg/ml variant on H7CR-GFP transfected CHO cells, anti-hIg PE secondary antibody [row HC2-3, column LC2-2]
Method: as §1

[4] = molecular target: T1, H7CR-GFP fusion protein on transfected …; experiment: flow cytometry, 5 µg/ml variant on H7CR-GFP transfected CHO cells, anti-hIg PE secondary antibody [row HC2-3, column LC2-1]
Method: as §1

[5] = molecular target: T1, H7CR-GFP fusion protein on transfected …; experiment: flow cytometry, 5 µg/ml variant on H7CR-GFP transfected CHO cells, anti-hIg PE secondary antibody [row HC2-3, column LC1-3]
Method: as §1

[6] = molecular target: T1, H7CR-GFP fusion protein on transfected …; experiment: flow cytometry, 5 µg/ml variant on H7CR-GFP transfected CHO cells, anti-hIg PE secondary antibody [row HC2-3, column LC2-3]
Method: as §1

[7] = molecular target: T1, H7CR-GFP fusion protein on transfected …; experiment: flow cytometry, 5 µg/ml variant on H7CR-GFP transfected CHO cells, anti-hIg PE secondary antibody [row HC2-3, column LC1-2]
Method: as §1

| Binder | binding result [2] | other results |
| --- | --- | --- |
| 4.5 humanized variant 31 (HC2-3 / LC1-1) (antibody, V domains shown, Variable domains only; detected with anti-hIg secondary; also called VH2C / VL1A) VH: QIQLKESGPTLVKPTQTLTLTCTVSGFSITTGGYYWNWIRQPPGKKLEWMALIYTSGRTSYNPSLKSRLTITKDTSKNQVVLTMTNMDPVDTATYYCADMADKGGWFAYWGQGTLVTVSS VL: DIVMTQSPDSLAVSLGERATINCKSSQSLFSSNTKRNYLAWYQQKPGQPPKLLIYHASTRESGVPDRFSGSGSGTDFTLTISSLQAEDVAVYYCQQHYETPLTFGQGTRLEIK | binds | binding result [1]: binds |
| 4.5 humanized variant 35 (HC2-3 / LC2-2) (antibody, V domains shown, Variable domains only; detected with anti-hIg secondary; also called VH2C / VL2B) VH: QIQLKESGPTLVKPTQTLTLTCTVSGFSITTGGYYWNWIRQPPGKKLEWMALIYTSGRTSYNPSLKSRLTITKDTSKNQVVLTMTNMDPVDTATYYCADMADKGGWFAYWGQGTLVTVSS VL: DIVMTQTPLSLPVTPGEPASISCRSSQSLFSSNTKRNYLNWYLQKPGQSPKLLIYHASTRLSGVPDRFSGSGSGTDFTLKISRVEAEDVGDYFCQQHYETPLTFGDGTRLEIK | binds | binding result [3]: binds |
| 4.5 humanized variant 34 (HC2-3 / LC2-1) (antibody, V domains shown, Variable domains only; detected with anti-hIg secondary; also called VH2C / VL2A) VH: QIQLKESGPTLVKPTQTLTLTCTVSGFSITTGGYYWNWIRQPPGKKLEWMALIYTSGRTSYNPSLKSRLTITKDTSKNQVVLTMTNMDPVDTATYYCADMADKGGWFAYWGQGTLVTVSS VL: DIVMTQTPLSLPVTPGEPASISCRSSQSLFSSNTKRNYLDWYLQKPGQSPQLLIYHASYRASGVPDRFSGSGSGTDFTLKISRVEAEDVGVYYCQQHYETPLTFGQGTRLEIK | binds | binding result [4]: binds |
| 4.5 humanized variant 33 (HC2-3 / LC1-3) (antibody, V domains shown, Variable domains only; detected with anti-hIg secondary; also called VH2C / VL1C) VH: QIQLKESGPTLVKPTQTLTLTCTVSGFSITTGGYYWNWIRQPPGKKLEWMALIYTSGRTSYNPSLKSRLTITKDTSKNQVVLTMTNMDPVDTATYYCADMADKGGWFAYWGQGTLVTVSS VL: DIVMTQSPDSLAVSLGERATINCLSSQSLFSSNTKRNYLNWYQQKPGQSPKLLIYHASTRLSGVPDRFSGSGSGTDFTLTISSLQAEDVADYFCQQHYETPLTFGDGTRLEIK | binds | binding result [5]: binds |
| 4.5 humanized variant 36 (HC2-3 / LC2-3) (antibody, V domains shown, Variable domains only; detected with anti-hIg secondary; also called VH2C / VL2C) VH: QIQLKESGPTLVKPTQTLTLTCTVSGFSITTGGYYWNWIRQPPGKKLEWMALIYTSGRTSYNPSLKSRLTITKDTSKNQVVLTMTNMDPVDTATYYCADMADKGGWFAYWGQGTLVTVSS VL: DIVMTQTPSSLPVTPGEPASISCLSSQSLFSSNTKRNYLNWYLQKPGQSPKLLIYHASTRLSGVPDRFSGSGSGTDFTLKISRVEAEDVGDYFCQQHYETPLTFGDGTRLEIK | binds | binding result [6]: binds |
| 4.5 humanized variant 32 (HC2-3 / LC1-2) (antibody, V domains shown, Variable domains only; detected with anti-hIg secondary; also called VH2C / VL1B) VH: QIQLKESGPTLVKPTQTLTLTCTVSGFSITTGGYYWNWIRQPPGKKLEWMALIYTSGRTSYNPSLKSRLTITKDTSKNQVVLTMTNMDPVDTATYYCADMADKGGWFAYWGQGTLVTVSS VL: DIVMTQSPDSLAVSLGERATINCKSSQSLFSSNTKRNYLNWYQQKPGQPPKLLIYHASTRLSGVPDRFSGSGSGTDFTLTISSLQAEDVADYFCQQHYETPLTFGDGTRLEIK | binds | binding result [7]: binds |
